Test results: patent publication US8530235B2, “Medium that supports culture of an oocyte and modulation of granulosa cell apoptosis” (Adelaide Research & Innovation Pty Ltd., priority 2005, dated 2013)

Assays:
Bcl-2 and Bax proteins = test: Western blot of Bcl-2 and Bax expression in OOX cumulus cells; assay type: cell-based, Bovine; details: OOX 24 h; for ratio of Bcl-2 to Bax: 132 ng/ml GDF-9, 10% v/v BMP-15 or 35 DO/well
Procedure: Following culture treatments, OOX complexes were lysed in […] RIPA lysis buffer (10 mM Tris [pH 7.4], 150 mM NaCl, 1 mM EDTA, 1% Trinton X-100 and stored at −80° C., for detection of apoptotic proteins using the sensitive Enhanced Chemiluminescence (ECl) Advance system (Amersham Biosciences, Ontario, Canada). Thawed lysates were mixed with 4× loading buffer containing 100 mM Dithiothretol (DTT) and subjected to SDS-PAGE (12% polyacrylamide gel). Proteins were subsequently electrotransferred to nitrocellulose membranes (Hybond-ECl, Amersham life Science, Ontario, Canada.) in 25 mM Tris-192 mM glycine containing 20% methanol. Blots were blocked in 20 mM Tris (pH 7.6) containing 13.7 mM NaCl, 1% Tween-20, and 2% blocking agent (provided in ECl Advance Kit) for 1 hr at RT, then incubated overnight with Bcl-2 or Bax rabbit polyclonal antibodies (0.35 μg/ml; Santa Cruz Biotechnology, Calif., USA) at 4° C., followed by incubation with horseradish peroxidase-conjugated anti-rabbit antibody (1:200 000; Silemus laboratories, Melbourne, Australia). Images were then scanned using a flat bed scanner and the intensity of Bcl-2 and Bax bands in each sample was quantitated by the ImageJ Imaging System Software version 1.3 (National Institutes of Health, USA).
This experiment was conducted to confirm that treatment effects on CC apoptosis, as assessed by TUNEL, are concomitant with changes in expression of key proteins regulating cell death and survival. OOX were cultured for 24 h untreated, or treated with 132 ng/ml GDF-9, 10% v/V BMP-15, co-cultured with 35 DO/well, or 10% 293H (control conditioned medium), and then subjected to Western blot for analysis of Bcl-2 and Bax expression.

cumulus-oocyte complexes = test: Study II: oocyte developmental competence after IVM, IVF and embryo culture (cleavage, blastocyst); assay type: cell-based, Bovine
Procedure: Bovine ovaries were collected from local abattoirs and transported to the laboratory in warm saline (30-35° C.). Cumulus-oocyte complexes (COC) were aspirated from antral follicles (2 to 8 mm diameter) using an 18-gauge needle and a 10-ml syringe containing ˜2 ml aspiration media (Hepes-buffered Tissue Cultured Medium-199; TCM-199, ICN Biochemicals, Irvine, Calif., USA) supplemented with 50 μg/ml kanamycin, 0.5 mM sodium pyruvate, 50 μg/ml heparin and 4 mg/ml fatty acid-free bovine serum albumin (FAF-BSA; ICPbio Ltd, Aukland, NZ). Intact COC with compact cumulus vestments greater than five cell layers and evenly pigmented cytoplasm were selected under a dissecting microscope and washed twice in Hepes-buffered TCM-199 and once in Hepes-TCM199 supplemented with 10% fetal calf serum (FCS) (Invitrogen, Carlsbad, Calif.). Base media for oocyte maturation was Bovine VitroMat (Cook Australia, Eight Mile Plain, Qld, Australia), and is a medium based on the ionic composition of bovine follicular fluid and also containing 100 μm glycylglutamine (Glutamax; Gibco Invitrogen, Carlsbad, Calif., USA), 100 μm N-acetyl-1-cysteine, 100 μm 2-mercaptoethylamine, 1% v/v non-essential amino acids (100×; Gibco Invitrogen), 2% v/v essential amino acids (50×; Gibco Invitrogen), 4 mg mL-1 fatty acid-free BSA and 5.6 mm glucose. […] (Puregon, Organon, Oss, Netherlands). Complexes were cultured pre-equilibrated […] drops overlaid with mineral oil and incubated at 39° C. with 5% CO2 in humidified air for 24 hour. […]
Recombinant mouse GDF-9 and recombinant ovine BMP-15 were produced in-house as previously described (Kaivo-Oja et al. (2003) J. Clin. Endocrinol Metab 88:755-762; McNatty et al. (2005) Reproduction 129:473-480) using transfected 293 human embryonic kidney cell lines (293H). Recombinant proteins were partially purified using hydrophobic interaction chromatography (HIC), as recently described (Hickey et al., (2005) Biol Reprod on line), and their concentrations were then estimated by Western blot (Kaivo-Oja et al., 2003 3) J. Clin. Endocrinol Metab 88:755-762). Control conditioned medium (293H) was also produced from untransfected 293H cells and purified by HIC.
All experiments were carried out using frozen semen from the same bull of proven fertility. Briefly, one straw of semen stored in liquid nitrogen was rapidly thawed in a water bath for one minute. The semen sample was layered on top of a discontinuous (45%:90%) Percoll gradient (Amersham Bioscience) and centrifuged at room temperature for 20-25 mins at 700 g. The supernatant was removed and the sperm pellet was washed with […] Bovine Vitro Wash (Cook Australia, Eight Mile Plains, Qld, Australia) and centrifuged for a further 5 minutes at 200 g. spermatozoa were resuspended with TVF medium (Bovine Vitro Fert, Cook Australia), then added to the fertilization media drops (Bovine Vitro Fert, Cook Australia, supplemented with 0.01 mM heparin, 0.2 mM penicillamine and […] hypotaurine) at a final concentration of 1×10^6 spermatozoa/ml. COCs were inseminated at a media density of […] of IVF medium per COCs for 24 h, at 39° C. in 6% CO2 in humidified air.
Cumulus cells were removed by gentle pipetting 23-24 h post insemination and five presumptive zygotes were transferred into 20 μl drops of pre-equilibrated Cook Bovine Cleave medium (modified SOFaa, Cook Australia) and cultured under mineral oil at 38.5° C. in 7% O2, 6% CO2, balance N2, for five days (day 1 to day 5).
On Day 5, embryos were transferred in groups of […] drops of pre-equilibrated Bovine Vitro Blast (Cook Bovine Blast medium; Cook Australia) at 38.5° C. overlaid with mineral oil and cultured to Day 8. Embryos were assessed for quality at Day 8 according to the definitions presented in the Manual of the International Embryo Transfer Society and were performed independently and blinded by an experienced bovine embryologist. […]

[1] = 1st REP, COC IVM 24 h, 175 ng/ml GDF-9, 10% BMP-15, 10% 293H

Row | Molecule | ratio of Bcl-2 to Bax (Bcl-2 and Bax proteins) | BLACTOCYST RATE (cumulus-oocyte complexes; [1]) [%] | CLEAVAGE RATE (cumulus-oocyte complexes; [1]) [%] | BLACTOCYST RATE (cumulus-oocyte complexes; 2nd REP) [%] | CLEAVAGE RATE (cumulus-oocyte complexes; 2nd REP) [%] | BLACTOCYST RATE (cumulus-oocyte complexes; 3rd REP) [%] | CLEAVAGE RATE (cumulus-oocyte complexes; 3rd REP) [%] | BLACTOCYST RATE (cumulus-oocyte complexes; 4th REP) [%] | CLEAVAGE RATE (cumulus-oocyte complexes; 4th REP) [%] | BLACTOCYST RATE (cumulus-oocyte complexes; AVERAGE, control COC 41.5%) [%] | CLEAVAGE RATE (cumulus-oocyte complexes; AVERAGE, control COC 84%) [%] | expression of Bax protein in CC (Bcl-2 and Bax proteins; 10% v/v BMP-15 or 35 DO/well) | expression of Bcl-2 protein in CC (Bcl-2 and Bax proteins; 10% v/v BMP-15 or 35 DO/well, compared to untreated or GDF-9) | number of oocytes that reached the blastocyst stage post insemination (cumulus-oocyte complexes; alone or in combination with GDF9, compared with GDF-9 alone or no supplement)
1 | GDF-9: Recombinant mouse GDF-9 produced in-house in transfected 293H cells, partially purified by HIC (protein, UniProt Q07105 307-441, looked up) Growth/differentiation factor …: GQKAIRSEAKGPLLTASFNLSEYFKQFLFPQNECELHDFRLSFSQLKWDNWIVAPHRYNPRYCKGDCPRAVRHRYGSPVHTMVQNIIYEKLDPSVPRPSCVPGKYSPLSVLTIEPDGSIAYKEYEDMIATRCTCR | no effect | 50 | 88 | 58 | 92 | 35 | 84 | 36 | 83 | 45 | 87 | – | – | –
2 | BMP-15: Recombinant ovine BMP-15 produced in-house in transfected 293H cells, partially purified by hydrophobic interaction chromatography; dosed as % v/v (protein, UniProt Q9MZE2 269-393, looked up) Bone morphogenetic protein 15: QAGSIASEVPGPSREHDGPESNQCSLHPFQVSFQQLGWDHWIIAPHLYTPNYCKGVCPRVLHYGLNSPNHAIIQNLVSELVDQNVPQPSCVPYKYVPISILLIEANGSILYKEYEGMIAQSCTCR | alter the ratio of Bcl-2 to Bax in favour of cell survival | 58 | 76 | 63 | 90 | 50 | 80 | 50 | 85 | 55 | 83 | barely detectable | significantly (P<0.001) higher | more effective
